Data taken from US20210388087A1 (Chugai, published 2021).
Numbering of substitutions follows the chain as printed. Names may count otherwise.

B1: H183/L072 VH F29A (antibody, name in Kabat numbering, V domains shown)
VH: QVQLVESGGGLVQPGRSLRLSCAASGFTASNAWMHWVRQAPGKGLEWVAQIKDKGNAYAAYYAPSVKGRFTISRDDSKNSIYLQMNSLKTEDTAVYYCHYVHYASASTVLPAFGVDAWGQGTTVTVSS
VL: DIVMTQSPLSLPVTPGEPASISCQASQELVHMNRNTYLHWYQQKPGQAPRLLIYKVSNRFPGVPDRFSGSGSGTDFTLKISRVEAEDVGVYYCAQGTSVPFTFGQGTKLEIK
B2: H183/L072 VH F29D (antibody, name in Kabat numbering, V domains shown)
VH: B1 VH with A29D
VL: B1 VL
B3: H183/L072 VH F29M (antibody, name in Kabat numbering, V domains shown)
VH: B1 VH with A29M
VL: B1 VL
B4: H183/L072 VH F100gP (antibody, name in Kabat numbering, V domains shown)
VH: B1 VH with A29F, F113P
VL: B1 VL
B5: H183/L072 VH G26F (antibody, name in Kabat numbering, V domains shown)
VH: B1 VH with G26F, A29F
VL: B1 VL
B6: H183/L072 VH F29Q (antibody, name in Kabat numbering, V domains shown)
VH: B1 VH with A29Q
VL: B1 VL
B7: H183/L072 VH G26P (antibody, name in Kabat numbering, V domains shown)
VH: B1 VH with G26P, A29F
VL: B1 VL
B8: H183/L072 VH F29K (antibody, name in Kabat numbering, V domains shown)
VH: B1 VH with A29K
VL: B1 VL
B9: H183/L072 VH F29T (antibody, name in Kabat numbering, V domains shown)
VH: B1 VH with A29T
VL: B1 VL
B10: H183/L072 VH G26I (antibody, name in Kabat numbering, V domains shown)
VH: B1 VH with G26I, A29F
VL: B1 VL
B11: H183/L072 VH F29E (antibody, name in Kabat numbering, V domains shown)
VH: B1 VH with A29E
VL: B1 VL
B12: H183/L072 VH G52cD (antibody, name in Kabat numbering, V domains shown)
VH: B1 VH with A29F, G55D
VL: B1 VL
B13: H183/L072 VH G26E (antibody, name in Kabat numbering, V domains shown)
VH: B1 VH with G26E, A29F
VL: B1 VL
B14: H183/L072 VH F29W (antibody, name in Kabat numbering, V domains shown)
VH: B1 VH with A29W
VL: B1 VL
B15: H183/L072 VH F29N (antibody, name in Kabat numbering, V domains shown)
VH: B1 VH with A29N
VL: B1 VL
B16: H183/L072 VH F29S (antibody, name in Kabat numbering, V domains shown)
VH: B1 VH with A29S
VL: B1 VL
B17: H183/L072 VH G52cE (antibody, name in Kabat numbering, V domains shown)
VH: B1 VH with A29F, G55E
VL: B1 VL
B18: H183/L072 VH F100gA (antibody, name in Kabat numbering, V domains shown)
VH: B1 VH with A29F, F113A
VL: B1 VL
B19: H183/L072 VH G52cH (antibody, name in Kabat numbering, V domains shown)
VH: B1 VH with A29F, G55H
VL: B1 VL
B20: H183/L072 VH F100gL (antibody, name in Kabat numbering, V domains shown)
VH: B1 VH with A29F, F113L
VL: B1 VL
B21: H183/L072 VH G52cA (antibody, name in Kabat numbering, V domains shown)
VH: B1 VH with A29F, G55A
VL: B1 VL
B22: H183/L072 VH F29P (antibody, name in Kabat numbering, V domains shown)
VH: B1 VH with A29P
VL: B1 VL
B23: H183/L072 VH F100gI (antibody, name in Kabat numbering, V domains shown)
VH: B1 VH with A29F, F113I
VL: B1 VL
B24: H183/L072 VH F29G (antibody, name in Kabat numbering, V domains shown)
VH: B1 VH with A29G
VL: B1 VL
B25: H183/L072 VH F29I (antibody, name in Kabat numbering, V domains shown)
VH: B1 VH with A29I
VL: B1 VL
B26: H183/L072 VH G26L (antibody, name in Kabat numbering, V domains shown)
VH: B1 VH with G26L, A29F
VL: B1 VL
B27: H183/L072 VH G26H (antibody, name in Kabat numbering, V domains shown)
VH: B1 VH with G26H, A29F
VL: B1 VL
B28: H183/L072 VH G26Q (antibody, name in Kabat numbering, V domains shown)
VH: B1 VH with G26Q, A29F
VL: B1 VL
B29: H183/L072 VH F100gM (antibody, name in Kabat numbering, V domains shown)
VH: B1 VH with A29F, F113M
VL: B1 VL
B30: H183/L072 VH F29L (antibody, name in Kabat numbering, V domains shown)
VH: B1 VH with A29L
VL: B1 VL
B31: H183/L072 VH G26W (antibody, name in Kabat numbering, V domains shown)
VH: B1 VH with G26W, A29F
VL: B1 VL
B32: H183/L072 VH G26V (antibody, name in Kabat numbering, V domains shown)
VH: B1 VH with G26V, A29F
VL: B1 VL
B33: H183/L072 VH G26Y (antibody, name in Kabat numbering, V domains shown)
VH: B1 VH with G26Y, A29F
VL: B1 VL
B34: H183/L072 VH G26S (antibody, name in Kabat numbering, V domains shown)
VH: B1 VH with G26S, A29F
VL: B1 VL
B35: H183/L072 VH F29R (antibody, name in Kabat numbering, V domains shown)
VH: B1 VH with A29R
VL: B1 VL
B36: H183/L072 VH G26M (antibody, name in Kabat numbering, V domains shown)
VH: B1 VH with G26M, A29F
VL: B1 VL
B37: H183/L072 VH G26T (antibody, name in Kabat numbering, V domains shown)
VH: B1 VH with G26T, A29F
VL: B1 VL
B38: H183/L072 VH F29V (antibody, name in Kabat numbering, V domains shown)
VH: B1 VH with A29V
VL: B1 VL
B39: H183/L072 VH G26R (antibody, name in Kabat numbering, V domains shown)
VH: B1 VH with G26R, A29F
VL: B1 VL
B40: H183/L072 VH G52cF (antibody, name in Kabat numbering, V domains shown)
VH: B1 VH with A29F, G55F
VL: B1 VL
B41: H183/L072 VH F29H (antibody, name in Kabat numbering, V domains shown)
VH: B1 VH with A29H
VL: B1 VL
B42: H183/L072 VH G26N (antibody, name in Kabat numbering, V domains shown)
VH: B1 VH with G26N, A29F
VL: B1 VL
B43: H183/L072 VH G26D (antibody, name in Kabat numbering, V domains shown)
VH: B1 VH with G26D, A29F
VL: B1 VL
B44: H183/L072 VH F29Y (antibody, name in Kabat numbering, V domains shown)
VH: B1 VH with A29Y
VL: B1 VL
B45: H183/L072 VH G26K (antibody, name in Kabat numbering, V domains shown)
VH: B1 VH with G26K, A29F
VL: B1 VL

Biological target: T1, Human CD3eg linker (human)
T1 construct: Single chain: epsilon and gamma subunits of human CD3 joined by a 29-mer linker, Flag-tag at the C-terminus; also called recombinant human CD3
T1 chain: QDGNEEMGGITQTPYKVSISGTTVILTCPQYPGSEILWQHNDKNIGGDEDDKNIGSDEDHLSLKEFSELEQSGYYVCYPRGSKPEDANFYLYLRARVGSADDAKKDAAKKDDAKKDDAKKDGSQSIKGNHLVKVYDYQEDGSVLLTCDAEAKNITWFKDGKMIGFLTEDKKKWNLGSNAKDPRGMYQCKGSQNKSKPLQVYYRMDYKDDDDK
Assay: Biacore SPR, vs template H183/L072

Row | fold change of affinity [fold] | Binder
1 | 0.2 | B1
2 | 0 | B2
3 | 0.4 | B3
4 | 1.8 | B4
5 | 0.4 | B5
6 | 0.2 | B6
7 | 0.1 | B7
8 | 0.1 | B8
9 | 0.2 | B9
10 | 0.5 | B10
11 | 0.1 | B11
12 | 1.1 | B12
13 | 0.6 | B13
14 | 0.5 | B14
15 | 0 | B15
16 | 0.1 | B16
17 | 1.2 | B17
18 | 1.7 | B18
19 | 1.7 | B19
20 | 1.3 | B20
21 | 1.6 | B21
22 | 0.2 | B22
23 | 1.2 | B23

Row | fold change of affinity [fold] | Binder
24 | 0 | B24
25 | 0.3 | B25
26 | 0.6 | B26
27 | 0 | B27
28 | 0.4 | B28
29 | 1.4 | B29
30 | 0.4 | B30
31 | 0.6 | B31
32 | 0 | B32
33 | 0.6 | B33
34 | 0.2 | B34
35 | 0 | B35
36 | 0.6 | B36
37 | 0.4 | B37
38 | 0 | B38
39 | 0.5 | B39
40 | 2 | B40
41 | 0 | B41
42 | 0.4 | B42
43 | 0.2 | B43
44 | 0.4 | B44
45 | 0.6 | B45
